Here are results for 35 variants from the Human Domainome abundance scans (Beltran et al. 2025).

± gives the uncertainty stated by the source.

The chains are these.
B1: Protein S100-G, residues 1 to 79; numbered along this chain, P02633 (parent)
chain: MSAKKSPEELKGIFEKYAAKEGDPNQLSKEELKLLLQTEFPSLLKGPSTLDELFEELDKNGDGEVSFEEFQVLVKKISQ

The variants in the data set derive from B1. Description: abundance fitness (aPCA) (normalised: wild type 0, dead -1); higher = more abundant; growth selection in yeast, the domain comes from the species named. The note with it: Bos taurus.
As to MSAKKSPEELKDIFEKYAAKEGDPNQLSKEELKLLLQTEFPSLLKGPSTLDELFEELDKNGDGEVSFEEFQVLVKKISQ [G12D], the abundance fitness came out at 0.067 ± 0.12.

Take MSAKKSPEELKEIFEKYAAKEGDPNQLSKEELKLLLQTEFPSLLKGPSTLDELFEELDKNGDGEVSFEEFQVLVKKISQ [G12E]: the abundance fitness was -0.165 ± 0.091. As for MSAKKSPEELKFIFEKYAAKEGDPNQLSKEELKLLLQTEFPSLLKGPSTLDELFEELDKNGDGEVSFEEFQVLVKKISQ [G12F], the figure is -0.01 ± 0.087; as for MSAKKSPEELKLIFEKYAAKEGDPNQLSKEELKLLLQTEFPSLLKGPSTLDELFEELDKNGDGEVSFEEFQVLVKKISQ [G12L], -0.009 ± 0.059. Then MSAKKSPEELKQIFEKYAAKEGDPNQLSKEELKLLLQTEFPSLLKGPSTLDELFEELDKNGDGEVSFEEFQVLVKKISQ [G12Q], with -0.059 ± 0.077; and MSAKKSPEELKMIFEKYAAKEGDPNQLSKEELKLLLQTEFPSLLKGPSTLDELFEELDKNGDGEVSFEEFQVLVKKISQ [G12M], with -0.002 ± 0.073; and MSAKKSPEELKYIFEKYAAKEGDPNQLSKEELKLLLQTEFPSLLKGPSTLDELFEELDKNGDGEVSFEEFQVLVKKISQ [G12Y], with -0.045 ± 0.094. As for MSAKKSPEELKRIFEKYAAKEGDPNQLSKEELKLLLQTEFPSLLKGPSTLDELFEELDKNGDGEVSFEEFQVLVKKISQ [G12R], the figure is 0.046 ± 0.076; as for MSAKKSPEELKHIFEKYAAKEGDPNQLSKEELKLLLQTEFPSLLKGPSTLDELFEELDKNGDGEVSFEEFQVLVKKISQ [G12H], 0.064 ± 0.089; as for MSAKKSPEELKWIFEKYAAKEGDPNQLSKEELKLLLQTEFPSLLKGPSTLDELFEELDKNGDGEVSFEEFQVLVKKISQ [G12W], -0.082 ± 0.087.

Regarding MSAKKSPEELKKIFEKYAAKEGDPNQLSKEELKLLLQTEFPSLLKGPSTLDELFEELDKNGDGEVSFEEFQVLVKKISQ [G12K], the abundance fitness came out at 0.029 ± 0.083.

MSAKKSPEELKIIFEKYAAKEGDPNQLSKEELKLLLQTEFPSLLKGPSTLDELFEELDKNGDGEVSFEEFQVLVKKISQ [G12I]: the abundance fitness is 0.088 ± 0.099. Then MSAKKSPEELKTIFEKYAAKEGDPNQLSKEELKLLLQTEFPSLLKGPSTLDELFEELDKNGDGEVSFEEFQVLVKKISQ [G12T], with 0.068 ± 0.068.

Turning to MSAKKSPEELKNIFEKYAAKEGDPNQLSKEELKLLLQTEFPSLLKGPSTLDELFEELDKNGDGEVSFEEFQVLVKKISQ [G12N], the abundance fitness is 0.001 ± 0.096.

For MSAKKSPEELKPIFEKYAAKEGDPNQLSKEELKLLLQTEFPSLLKGPSTLDELFEELDKNGDGEVSFEEFQVLVKKISQ [G12P], the abundance fitness was -0.048 ± 0.068.

Regarding MSAKKSPEELKVIFEKYAAKEGDPNQLSKEELKLLLQTEFPSLLKGPSTLDELFEELDKNGDGEVSFEEFQVLVKKISQ [G12V], the abundance fitness was found to be 0.031 ± 0.072. On to MSAKKSPEELKGCFEKYAAKEGDPNQLSKEELKLLLQTEFPSLLKGPSTLDELFEELDKNGDGEVSFEEFQVLVKKISQ [I13C], for which the abundance fitness is -0.093 ± 0.088.

For MSAKKSPEELKGDFEKYAAKEGDPNQLSKEELKLLLQTEFPSLLKGPSTLDELFEELDKNGDGEVSFEEFQVLVKKISQ [I13D], the abundance fitness is -0.436 ± 0.097.

Consider MSAKKSPEELQGIFEKYAAKEGDPNQLSKEELKLLLQTEFPSLLKGPSTLDELFEELDKNGDGEVSFEEFQVLVKKISQ [K11Q], for which the abundance fitness is -0.04 ± 0.078. As for MSAKKSPEELEGIFEKYAAKEGDPNQLSKEELKLLLQTEFPSLLKGPSTLDELFEELDKNGDGEVSFEEFQVLVKKISQ [K11E], the abundance fitness is -0.063 ± 0.1. Then MSAKKSPEELYGIFEKYAAKEGDPNQLSKEELKLLLQTEFPSLLKGPSTLDELFEELDKNGDGEVSFEEFQVLVKKISQ [K11Y], with -0.124 ± 0.079.

Consider MSAKKSPEELIGIFEKYAAKEGDPNQLSKEELKLLLQTEFPSLLKGPSTLDELFEELDKNGDGEVSFEEFQVLVKKISQ [K11I], for which the abundance fitness is -0.002 ± 0.078. Then MSAKKSPEELFGIFEKYAAKEGDPNQLSKEELKLLLQTEFPSLLKGPSTLDELFEELDKNGDGEVSFEEFQVLVKKISQ [K11F], with 0.023 ± 0.08; and MSAKKSPEELCGIFEKYAAKEGDPNQLSKEELKLLLQTEFPSLLKGPSTLDELFEELDKNGDGEVSFEEFQVLVKKISQ [K11C], with -0.202 ± 0.099; and MSAKKSPEELGGIFEKYAAKEGDPNQLSKEELKLLLQTEFPSLLKGPSTLDELFEELDKNGDGEVSFEEFQVLVKKISQ [K11G], with -0.176 ± 0.11. As for MSAKKSPEELDGIFEKYAAKEGDPNQLSKEELKLLLQTEFPSLLKGPSTLDELFEELDKNGDGEVSFEEFQVLVKKISQ [K11D], the figure is -0.369 ± 0.1; as for MSAKKSPEELRGIFEKYAAKEGDPNQLSKEELKLLLQTEFPSLLKGPSTLDELFEELDKNGDGEVSFEEFQVLVKKISQ [K11R], -0.185 ± 0.075. Then MSAKKSPEELLGIFEKYAAKEGDPNQLSKEELKLLLQTEFPSLLKGPSTLDELFEELDKNGDGEVSFEEFQVLVKKISQ [K11L], with -0.096 ± 0.06; and MSAKKSPEELPGIFEKYAAKEGDPNQLSKEELKLLLQTEFPSLLKGPSTLDELFEELDKNGDGEVSFEEFQVLVKKISQ [K11P], with -0.373 ± 0.068; and MSAKKSPEELHGIFEKYAAKEGDPNQLSKEELKLLLQTEFPSLLKGPSTLDELFEELDKNGDGEVSFEEFQVLVKKISQ [K11H], with -0.14 ± 0.078.

For the variant MSAKKSPEELMGIFEKYAAKEGDPNQLSKEELKLLLQTEFPSLLKGPSTLDELFEELDKNGDGEVSFEEFQVLVKKISQ [K11M], the abundance fitness was -0.151 ± 0.077. Then MSAKKSPEELWGIFEKYAAKEGDPNQLSKEELKLLLQTEFPSLLKGPSTLDELFEELDKNGDGEVSFEEFQVLVKKISQ [K11W], with -0.294 ± 0.1. As for MSAKKSPEELAGIFEKYAAKEGDPNQLSKEELKLLLQTEFPSLLKGPSTLDELFEELDKNGDGEVSFEEFQVLVKKISQ [K11A], the figure is -0.157 ± 0.081. Then MSAKKSPEELTGIFEKYAAKEGDPNQLSKEELKLLLQTEFPSLLKGPSTLDELFEELDKNGDGEVSFEEFQVLVKKISQ [K11T], with -0.197 ± 0.064; and MSAKKSPEEYKGIFEKYAAKEGDPNQLSKEELKLLLQTEFPSLLKGPSTLDELFEELDKNGDGEVSFEEFQVLVKKISQ [L10Y], with -0.038 ± 0.081.
